B1: N254A: PH20sHis N-glycosylation site mutant N254A, SEQ ID NO:205 (protein)
chain: MGVLKFKHIFFRSFVKSSGVSQIVFTFLLIPCCLTLNFRAPPVIPNVPFLWAWNAPSEFCLGKFDEPLDMSLFSFIGSPRINATGQGVTIFYVDRLGYYPYIDSITGVTVNGGIPQKISLQDHLDKAKKDITFYMPVDNLGMAVIDWEEWRPTWARNWKPKDVYKNRSIELVQQQNVQLSLTEATEKAKQEFEKAGKDFLVETIKLGKLLRPNHLWGYYLFPDCYNHHYKKPGYNGSCFNVEIKRNDDLSWLWAESTALYPSIYLNTQQSPVAATLYVRNRVREAIRVSKIPDAKSPLPVFAYTRIVFTDQVLKFLSQDELVYTFGETVALGASGIVIWGTLSIMRSMKSCLLLDNYMETILNPYIINVTLAAKMCSQVLCQEQGVCIRKNWNSSDYLHLNPDNFAIQLEKGGKFTVRGKPTLEDLEQFSEKFYCSCYSTLSCKEKADVKDTDAVDVCIADGVCIDAFLKPPMETEEPQIFYNASPSTLSHHHHHH
modifications: His tag; PH20sHis N254A
B2: N82A/N254A: PH20sHis double mutant, SEQ ID NO:207 (protein)
chain: B1 chain with N82A
modifications: His tag; PH20sHis N82A/N254A
B3: N82A/N166A/N254A: PH20sHis triple mutant, SEQ ID NO:209 (protein)
chain: B1 chain with N82A, N166A
modifications: His tag; PH20sHis N82A/N166A/N254A
B4: N166A: PH20sHis N-glycosylation site mutant N166A, SEQ ID NO:203 (protein)
chain: B1 chain with N166A, A254N
modifications: His tag; PH20sHis N166A
B5: N82A: PH20sHis N-glycosylation site mutant N82A, SEQ ID NO:202 (protein)
chain: B1 chain with N82A, A254N
modifications: His tag; PH20sHis N82A
B6: N82A/N166A: PH20sHis double mutant, SEQ ID NO:206 (protein)
chain: B1 chain with N82A, N166A, A254N
modifications: His tag; PH20sHis N82A/N166A
B7: N166A/N254A: PH20sHis double mutant, SEQ ID NO:208 (protein)
chain: B1 chain with N166A
modifications: His tag; PH20sHis N166A/N254A
B8: SPAM1-FLKP: C-terminally truncated human PH20, precursor 471 aa (SEQ ID NO:29), mature 436 aa (SEQ ID NO:81) (protein, listed as Homo sapiens)
chain 1: MGVLKFKHIFFRSFVKSSGVSQIVFTFLLIPCCLTLNFRAPPVIPNVPFLWAWNAPSEFCLGKFDEPLDMSLFSFIGSPRINATGQGVTIFYVDRLGYYPYIDSITGVTVNGGIPQKISLQDHLDKAKKDITFYMPVDNLGMAVIDWEEWRPTWARNWKPKDVYKNRSIELVQQQNVQLSLTEATEKAKQEFEKAGKDFLVETIKLGKLLRPNHLWGYYLFPDCYNHHYKKPGYNGSCFNVEIKRNDDLSWLWNESTALYPSIYLNTQQSPVAATLYVRNRVREAIRVSKIPDAKSPLPVFAYTRIVFTDQVLKFLSQDELVYTFGETVALGASGIVIWGTLSIMRSMKSCLLLDNYMETILNPYIINVTLAAKMCSQVLCQEQGVCIRKNWNSSDYLHLNPDNFAIQLEKGGKFTVRGKPTLEDLEQFSEKFYCSCYSTLSCKEKADVKDTDAVDVCIADGVCIDAFLKP
chain 2: LNFRAPPVIPNVPFLWAWNAPSEFCLGKFDEPLDMSLFSFIGSPRINATGQGVTIFYVDRLGYYPYIDSITGVTVNGGIPQKISLQDHLDKAKKDITFYMPVDNLGMAVIDWEEWRPTWARNWKPKDVYKNRSIELVQQQNVQLSLTEATEKAKQEFEKAGKDFLVETIKLGKLLRPNHLWGYYLFPDCYNHHYKKPGYNGSCFNVEIKRNDDLSWLWNESTALYPSIYLNTQQSPVAATLYVRNRVREAIRVSKIPDAKSPLPVFAYTRIVFTDQVLKFLSQDELVYTFGETVALGASGIVIWGTLSIMRSMKSCLLLDNYMETILNPYIINVTLAAKMCSQVLCQEQGVCIRKNWNSSDYLHLNPDNFAIQLEKGGKFTVRGKPTLEDLEQFSEKFYCSCYSTLSCKEKADVKDTDAVDVCIADGVCIDAFLKP
modifications: HuPH20 precursor 1-471; Mature HuPH20 36-471
B9: SPAM1-LKPP: C-terminally truncated human PH20, precursor 472 aa (SEQ ID NO:28), mature 437 aa (SEQ ID NO:80) (protein, listed as Homo sapiens)
chain 1: MGVLKFKHIFFRSFVKSSGVSQIVFTFLLIPCCLTLNFRAPPVIPNVPFLWAWNAPSEFCLGKFDEPLDMSLFSFIGSPRINATGQGVTIFYVDRLGYYPYIDSITGVTVNGGIPQKISLQDHLDKAKKDITFYMPVDNLGMAVIDWEEWRPTWARNWKPKDVYKNRSIELVQQQNVQLSLTEATEKAKQEFEKAGKDFLVETIKLGKLLRPNHLWGYYLFPDCYNHHYKKPGYNGSCFNVEIKRNDDLSWLWNESTALYPSIYLNTQQSPVAATLYVRNRVREAIRVSKIPDAKSPLPVFAYTRIVFTDQVLKFLSQDELVYTFGETVALGASGIVIWGTLSIMRSMKSCLLLDNYMETILNPYIINVTLAAKMCSQVLCQEQGVCIRKNWNSSDYLHLNPDNFAIQLEKGGKFTVRGKPTLEDLEQFSEKFYCSCYSTLSCKEKADVKDTDAVDVCIADGVCIDAFLKPP
chain 2: LNFRAPPVIPNVPFLWAWNAPSEFCLGKFDEPLDMSLFSFIGSPRINATGQGVTIFYVDRLGYYPYIDSITGVTVNGGIPQKISLQDHLDKAKKDITFYMPVDNLGMAVIDWEEWRPTWARNWKPKDVYKNRSIELVQQQNVQLSLTEATEKAKQEFEKAGKDFLVETIKLGKLLRPNHLWGYYLFPDCYNHHYKKPGYNGSCFNVEIKRNDDLSWLWNESTALYPSIYLNTQQSPVAATLYVRNRVREAIRVSKIPDAKSPLPVFAYTRIVFTDQVLKFLSQDELVYTFGETVALGASGIVIWGTLSIMRSMKSCLLLDNYMETILNPYIINVTLAAKMCSQVLCQEQGVCIRKNWNSSDYLHLNPDNFAIQLEKGGKFTVRGKPTLEDLEQFSEKFYCSCYSTLSCKEKADVKDTDAVDVCIADGVCIDAFLKPP
modifications: HuPH20 precursor 1-472; Mature HuPH20 36-472

Residue numbers refer to the chain shown, from its start. In names and notes the source's numbering stands.

Test system in the first series: not listed separately
The experiment in a line: Hyaluronidase activity of N-glycan site specific deglycosylation mutants (biotinylated-HA assay). The class given is biochemical. As to conditions: media of transfected CHO-S cells; pH 5.5. The method, then:
In short, a 4×BH 96-well plate was coated with biotinylated-HA (1.1 MDa). The 72 hour post transfection supernatant from cells transfected with human PH20 hyaluronidase carboxy-terminus deletion mutants was diluted in buffer at either pH 7.4 or pH 5.5 and added to individual wells of the plate and allowed to incubate at 37° C. for 90 minutes. The reaction was terminated by addition of 4M guanidine HCl. The wells were washed 4× with Phosphate Buffered Saline with Tween20 (PBST) to remove any digested biotinylated-HA followed by addition of streptavidin-HRP for 1 hour at room temperature. The wells were washed 4× with PBST and the plate was developed with TMB. The plate was read at 450 nm using an ELISA plate reader. Hyaluronidase activity (in Units/mL) was determined by interpolating the measured absorbance at 450 nm with a hyaluronidase reference standard curve. Full length mature human PH20 hyaluronidase and untransfected CHO cells were used as positive and negative controls.
PH20sHis (SEQ ID NO:210) was used as a template for mutagenesis of each asparagine residue to alanine using QuikChange® Site-Directed Mutagenesis Kit (Cat No. 200518, Stratagene). […] Six single mutants were generated, one for each of the N-glycosylation sites. Additionally, three double mutants and a triple mutant were generated for asparagines N82, N166 and N254, all of which are occupied by complex type glycans. Finally, a double mutant N368A/N393A was generated, lacking high mannose glycans. The mutants were transfected into CHO—S cells and expression was performed as described in Example 2A. Secretion into the media and hyaluronidase activity were determined as described in Examples 3 and 5, above.
As to B1, the “Activity pH 5.5” value was “YES”.

For B2, the “Activity pH 5.5” value is “YES”.

On to B3, for which the “Activity pH 5.5” value is given as “YES”.

Turning to B4, the “Activity pH 5.5” value was “YES”.

In the case of B5, the “Activity pH 5.5” value is “YES”.

In the case of B6, the “Activity pH 5.5” value was “YES”.

Take B7: the “Activity pH 5.5” value is “YES”.

The series is the same for the next values; noted with them: media of transfected CHO-S cells; pH 7.4.
On to B1, for which the “Activity pH 7.4” value is listed as “YES”.

Turning to B2, the “Activity pH 7.4” value was “YES”.

Turning to B3, the “Activity pH 7.4” value is given as “YES”.

With B4, the “Activity pH 7.4” value was “YES”.

For B5, the “Activity pH 7.4” value was “YES”.

On to B6, for which the “Activity pH 7.4” value was “YES”.

As to B7, the “Activity pH 7.4” value is listed as “YES”.

For another series, the system named is CHO-S cells. The experiment in a line: Western blot analysis of PH20 expression in media and cells after transient expression. To be noted: media versus cells. The class given is cell-based, Chinese Hamster. An outline of the steps:
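CHO-S cells were transiently transfected with mutant PH20-HZ24 plasmids using GeneJuice and expressed for 48-72 h at 37 °C, 5% CO2. Media and cells were harvested separately, with PI-PLC treatment used to release GPI-anchored protein. Non-reduced samples were blotted with rabbit anti-PH20 (0.5 μg/mL), and a band near 66 kDa was scored as PH20.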
(In general: In western blotting, separated proteins are transferred to a membrane and probed.)
B8: the “Expressed in Media” value is on record as “YES”.

With B9, the “Expressed in Media” value is “YES”.

Test system in the next series: not listed separately
Put plainly: Microtiter hyaluronidase activity assay with biotinylated-hyaluronic acid. The class given is biochemical. As to conditions: Table 6; 72 hour post transfection supernatant; pH 5.5.
On to B8, for which the “pH 5.5 Activity” value came to 2.79 Units/ml.

As to B9, the “pH 5.5 Activity” value worked out at 0.9 Units/ml.

Still in this series, the particulars now being: Table 6; 72 hour post transfection supernatant; pH 7.4.
On to B8, for which the “pH 7.4 Activity” value was 3.321 Units/ml.

As for B9, the “pH 7.4 Activity” value was 0.5445 Units/ml.
